Laboratory results published in patent publication US7410949 (Hoffmann-La Roche, dated 2008).
*1 amine or outer side, *2 acyl side, *3 side chain or, on linkers, in order; H or OH if unused. [ ]: non-standard residue; d: D form. Pqa = N-piperazin-1-yl-4(3H)-quinazolinone-3-acetic acid, O=C(Cn1cnc2ccc(N3CCN([*:1])CC3)cc2c1=O)[*:2]; Phe(3,4,5-F3) = N[C@@H](Cc1cc(F)c(F)c(F)c1)C(=O)O; Phe(F5) = N[C@@H](Cc1c(F)c(F)c(F)c(F)c1F)C(=O)O; Bip = N[C@@H](Cc1ccc(-c2ccccc2)cc1)C(=O)O; Dip = N[C@H](C(=O)O)C(c1ccccc1)c1ccccc1; 1Nal = N[C@@H](Cc1cccc2ccccc12)C(=O)O; Nle = CCCC[C@H](N)C(=O)O

B1: H-Ile-Lys-Pqa-Arg-His-(D)Tyr-Leu-Asn-Leu-Val-Thr-Arg-Gln-Arg-Tyr-NH2 (peptide)
peptide: IKRHYLNLVTRQRY
modifications: (D)Tyr at PYY position 27 (residue 3 of the second part); Pqa moiety between the two parts; C-terminal amide
B2: Ac-Ile-Nle-Pqa-Arg-His-(1)Nal-Leu-Asn-Leu-Val-Thr-Arg-Gln-Arg-Tyr-NH2 (peptide)
peptide: Ac-I[Nle][Pqa]RH[1Nal]LNLVTRQRY-NH2
SMILES: CCCC[C@H](NC(=O)[C@@H](NC(C)=O)[C@@H](C)CC)C(=O)N1CCN(c2ccc3ncn(CC(=O)N[C@@H](CCCNC(=N)N)C(=O)N[C@@H](Cc4c[nH]cn4)C(=O)N[C@@H](Cc4cccc5ccccc45)C(=O)N[C@@H](CC(C)C)C(=O)N[C@@H](CC(N)=O)C(=O)N[C@@H](CC(C)C)C(=O)N[C@H](C(=O)N[C@H](C(=O)N[C@@H](CCCNC(=N)N)C(=O)N[C@@H](CCC(N)=O)C(=O)N[C@@H](CCCNC(=N)N)C(=O)N[C@@H](Cc4ccc(O)cc4)C(N)=O)[C@@H](C)O)C(C)C)c(=O)c3c2)CC1
B3: Ac-Ile-Nle-Pqa-Arg-His-Dip-Leu-Asn-Leu-Val-Thr-Arg-Gln-Arg-Tyr-NH2 (peptide)
peptide: Ac-I[Nle][Pqa]RH[Dip]LNLVTRQRY-NH2
SMILES: CCCC[C@H](NC(=O)[C@@H](NC(C)=O)[C@@H](C)CC)C(=O)N1CCN(c2ccc3ncn(CC(=O)N[C@@H](CCCNC(=N)N)C(=O)N[C@@H](Cc4c[nH]cn4)C(=O)N[C@H](C(=O)N[C@@H](CC(C)C)C(=O)N[C@@H](CC(N)=O)C(=O)N[C@@H](CC(C)C)C(=O)N[C@H](C(=O)N[C@H](C(=O)N[C@@H](CCCNC(=N)N)C(=O)N[C@@H](CCC(N)=O)C(=O)N[C@@H](CCCNC(=N)N)C(=O)N[C@@H](Cc4ccc(O)cc4)C(N)=O)[C@@H](C)O)C(C)C)C(c4ccccc4)c4ccccc4)c(=O)c3c2)CC1
B4: H-Ile-Lys-Pqa-Arg-His-Tyr-Leu-Asn-Leu-Val-Thr-(NMe)Arg-Gln-Arg-Tyr-NH2 (peptide)
peptide: IKRHYLNLVTRQRY
modifications: N-methyl Arg at PYY position 33 (residue 9 of the second part); Pqa moiety between the two parts; C-terminal amide
B5: Ac-Ile-Nle-Pqa-Arg-His-(2,3,4,5,6 Penta fluoroPhe)-Leu-Asn-Leu-Val-Thr-Arg-Gln-Arg-Tyr-NH2 (peptide)
peptide: Ac-I[Nle][Pqa]RH[Phe(F5)]LNLVTRQRY-NH2
SMILES: CCCC[C@H](NC(=O)[C@@H](NC(C)=O)[C@@H](C)CC)C(=O)N1CCN(c2ccc3ncn(CC(=O)N[C@@H](CCCNC(=N)N)C(=O)N[C@@H](Cc4c[nH]cn4)C(=O)N[C@@H](Cc4c(F)c(F)c(F)c(F)c4F)C(=O)N[C@@H](CC(C)C)C(=O)N[C@@H](CC(N)=O)C(=O)N[C@@H](CC(C)C)C(=O)N[C@H](C(=O)N[C@H](C(=O)N[C@@H](CCCNC(=N)N)C(=O)N[C@@H](CCC(N)=O)C(=O)N[C@@H](CCCNC(=N)N)C(=O)N[C@@H](Cc4ccc(O)cc4)C(N)=O)[C@@H](C)O)C(C)C)c(=O)c3c2)CC1
B6: H-Ile-Lys-Pqa-Arg-His-Tyr-Leu-(D))Asn-Leu-Val-Thr-Arg-Gln-Arg-Tyr-NH2 (peptide)
peptide: IKRHYLNLVTRQRY
modifications: (D)Asn at PYY position 29 (residue 5 of the second part); Pqa moiety between the two parts; C-terminal amide
B7: H-Ile-Lys-Pqa-Arg-His-Tyr-(NMe)Leu-Asn-Leu-Val-Thr-Arg-Gln-Arg-Tyr-NH2 (peptide)
peptide: IKRHYLNLVTRQRY
modifications: N-methyl Leu at PYY position 28 (residue 4 of the second part); Pqa moiety between the two parts; C-terminal amide
B8: Ac-Ile-Nle-Pqa-Arg-His-(3,4,5trifluorPhe)-Leu-Asn-Leu-Val-Thr-Arg-Gln-Arg-Tyr-NH2 (peptide)
peptide: Ac-I[Nle][Pqa]RH[Phe(3,4,5-F3)]LNLVTRQRY-NH2
SMILES: CCCC[C@H](NC(=O)[C@@H](NC(C)=O)[C@@H](C)CC)C(=O)N1CCN(c2ccc3ncn(CC(=O)N[C@@H](CCCNC(=N)N)C(=O)N[C@@H](Cc4c[nH]cn4)C(=O)N[C@@H](Cc4cc(F)c(F)c(F)c4)C(=O)N[C@@H](CC(C)C)C(=O)N[C@@H](CC(N)=O)C(=O)N[C@@H](CC(C)C)C(=O)N[C@H](C(=O)N[C@H](C(=O)N[C@@H](CCCNC(=N)N)C(=O)N[C@@H](CCC(N)=O)C(=O)N[C@@H](CCCNC(=N)N)C(=O)N[C@@H](Cc4ccc(O)cc4)C(N)=O)[C@@H](C)O)C(C)C)c(=O)c3c2)CC1
B9: Ac-Ile-Nle-Pqa-Arg-His-Bip-Leu-Asn-Leu-Val-Thr-Arg-Gln-Arg-Tyr-NH2 (peptide)
peptide: Ac-I[Nle][Pqa]RH[Bip]LNLVTRQRY-NH2
SMILES: CCCC[C@H](NC(=O)[C@@H](NC(C)=O)[C@@H](C)CC)C(=O)N1CCN(c2ccc3ncn(CC(=O)N[C@@H](CCCNC(=N)N)C(=O)N[C@@H](Cc4c[nH]cn4)C(=O)N[C@@H](Cc4ccc(-c5ccccc5)cc4)C(=O)N[C@@H](CC(C)C)C(=O)N[C@@H](CC(N)=O)C(=O)N[C@@H](CC(C)C)C(=O)N[C@H](C(=O)N[C@H](C(=O)N[C@@H](CCCNC(=N)N)C(=O)N[C@@H](CCC(N)=O)C(=O)N[C@@H](CCCNC(=N)N)C(=O)N[C@@H](Cc4ccc(O)cc4)C(N)=O)[C@@H](C)O)C(C)C)c(=O)c3c2)CC1
B10: H-Ile-(D)Lys-Pqa-Arg-His-Tyr-Leu-Asn-Leu-Val-Thr-Arg-Gln-Arg-Tyr-NH2 (peptide)
peptide: IKRHYLNLVTRQRY
modifications: (D)Lys at PYY position 4 (residue 2 of the first part); Pqa moiety between the two parts; C-terminal amide
B11: H-Ile-Lys-Pqa-Arg-His-Tyr-Leu-Asn-Leu-Val-Thr-Arg-Gln-Arg-(D)Tyr-NH2 (peptide)
peptide: IKRHYLNLVTRQRY
modifications: (D)Tyr at PYY position 36 (residue 12 of the second part); Pqa moiety between the two parts; C-terminal amide
B12: H-Ile-Lys-Pqa-(D)Arg-His-Tyr-Leu-Asn-Leu-Val-Thr-Arg-Gln-Arg-Tyr-NH2 (peptide)
peptide: IKRHYLNLVTRQRY
modifications: (D)Arg at PYY position 25 (residue 1 of the second part); Pqa moiety between the two parts; C-terminal amide
B13: H-Ile-NMeLys-Pqa-Arg-His-Tyr-Leu-Asn-Leu-Val-Thr-Arg-Gln-Arg-Tyr-NH2 (peptide)
peptide: IKRHYLNLVTRQRY
modifications: N-methyl Lys at PYY position 4 (residue 2 of the first part); Pqa moiety between the two parts; C-terminal amide
B14: H-Ile-Lys-Pqa-Arg-His-Tyr-Leu-Asn-Leu-Val-Thr-Arg-Gln-Arg-(NMe)Tyr-NH2 (peptide)
peptide: IKRHYLNLVTRQRY
modifications: N-methyl Tyr at PYY position 36 (residue 12 of the second part); Pqa moiety between the two parts; C-terminal amide
B15: Ac-Ile-Lys-Pqa-Arg-His-Tyr-Leu-Asn-Leu-Val-Thr-Arg-Gln-Arg-Tyr-NH2 (peptide)
peptide: IKRHYLNLVTRQRY
modifications: N-terminal acetyl; Pqa moiety between the two parts; C-terminal amide

How the values were obtained:
Y4R = assay: cell-based or functional assay
Y1R = assay: cell-based or functional assay
Y1R, sequence (P25929 whole entry): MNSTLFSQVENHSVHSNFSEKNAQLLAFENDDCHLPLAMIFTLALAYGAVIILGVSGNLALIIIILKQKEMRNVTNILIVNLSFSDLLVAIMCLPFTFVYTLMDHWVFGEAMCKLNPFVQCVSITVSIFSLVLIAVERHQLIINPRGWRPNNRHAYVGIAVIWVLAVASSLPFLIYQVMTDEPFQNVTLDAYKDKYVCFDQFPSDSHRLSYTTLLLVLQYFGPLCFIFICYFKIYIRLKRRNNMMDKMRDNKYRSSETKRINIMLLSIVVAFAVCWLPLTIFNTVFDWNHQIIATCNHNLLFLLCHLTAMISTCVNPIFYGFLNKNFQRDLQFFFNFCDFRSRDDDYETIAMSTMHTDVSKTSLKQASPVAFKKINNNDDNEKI

Binder	Y4R EC50(nM) FLIPR (Y4R)	Y1R EC50(nM) FLIPR (Y1R)
B1	> 5000 nM	
B2	> 5000 nM	
B3	> 5000 nM	
B4	> 5000 nM	> 5000 nM
B5	> 5000 nM	
B6	> 5000 nM	
B7	> 5000 nM	> 5000 nM
B8	> 5000 nM	
B9	> 5000 nM	
B10	> 5000 nM	> 5000 nM
B11	> 5000 nM	
B12	> 5000 nM	
B13	> 5000 nM	
B14	> 5000 nM	> 5000 nM
B15	> 5000 nM	
